These results are taken from the supplement of paper PMC9112550, “Optimization of the antimicrobial peptide Bac7 by deep mutational scanning” (BMC Biology, 2022).

For the series, the system named is Escherichia coli TOP10. In words: shrunken log2 fold change of peptide-encoding DNA abundance (4.5 h post-induction vs induction); higher = less antimicrobial activity (less host growth inhibition). Conditions: time post-induction: 4.5 h; library: site-saturation at positions 5, 18, 19, 20.
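Also: peptides expressed intracellularly from a pBAD plasmid library in pooled LB shake-flask culture, induced with 0.3% L-arabinose, DNA abundance read by NGS, three biological replicates, DESeq2 with apeglm shrinkage.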

For RRIRERPPRLPRPRPRPNQTPRP, the “shrunken log2 fold change” value was -0.13.
The figure for RRIRFRPPRLPRPRPRPQEHPRP is -0.115; for RRIRYRPPRLPRPRPRPHSYPRP it is -0.188; for RRIRWRPPRLPRPRPRPVAPPRP it is 0.522.
The figure for RRIRTRPPRLPRPRPRPNQHPRP is -0.354.
For RRIRPRPPRLPRPRPRPYAVPRP the value was -0.712; for RRIRTRPPRLPRPRPRPETMPRP, 0.338.
Consider RRIRGRPPRLPRPRPRPFNQPRP, for which the “shrunken log2 fold change” value was -0.28.
With RRIRMRPPRLPRPRPRPYTGPRP, the “shrunken log2 fold change” value is 0.042.
For RRIRMRPPRLPRPRPRPLAEPRP the value was 3.05; for RRIRFRPPRLPRPRPRPCHGPRP, -1.45; for RRIRRRPPRLPRPRPRPYDQPRP, -0.0875.
For the sequence RRIRIRPPRLPRPRPRPSPMPRP, the “shrunken log2 fold change” value was -0.2.
For RRIRRRPPRLPRPRPRPCRSPRP the value was -0.03.
For the sequence RRIRNRPPRLPRPRPRPQNFPRP, the “shrunken log2 fold change” value turned out to be 0.0364.
Consider RRIRGRPPRLPRPRPRPRQKPRP, for which the “shrunken log2 fold change” value worked out at 1.43.
With RRIRNRPPRLPRPRPRPQHQPRP, the “shrunken log2 fold change” value was -0.135.
For RRIRTRPPRLPRPRPRPSAEPRP the value was 0.363.
The figure for RRIRPRPPRLPRPRPRPPAFPRP is 0.166.
Take RRIRYRPPRLPRPRPRPQTSPRP: the “shrunken log2 fold change” value was -1.22.
For RRIRDRPPRLPRPRPRPLQPPRP the value was 0.467.
For RRIRWRPPRLPRPRPRPNKTPRP the value was 0.0629; for RRIRQRPPRLPRPRPRPDKWPRP, -0.00997.
For RRIRFRPPRLPRPRPRPLHAPRP, the “shrunken log2 fold change” value is 0.0292.
The figure for RRIRGRPPRLPRPRPRPRTIPRP is 0.375; for RRIRFRPPRLPRPRPRPLTEPRP it is -0.331; for RRIRRRPPRLPRPRPRPSGCPRP it is 0.212.
For RRIRKRPPRLPRPRPRPKHSPRP the value was -0.147.
The figure for RRIRVRPPRLPRPRPRPWYVPRP is -0.971; for RRIRGRPPRLPRPRPRPNKEPRP it is -0.00663; for RRIRFRPPRLPRPRPRPPRIPRP it is 0.232.
Turning to RRIRGRPPRLPRPRPRPFSLPRP, the “shrunken log2 fold change” value is -0.693.
For RRIRMRPPRLPRPRPRPLVIPRP the value was -0.13.
For RRIRYRPPRLPRPRPRPISIPRP the value was -0.134; for RRIRPRPPRLPRPRPRPDPQPRP, -0.0397.
As to RRIRWRPPRLPRPRPRPGPVPRP, the “shrunken log2 fold change” value worked out at 0.423.
The figure for RRIRLRPPRLPRPRPRPVGWPRP is 0.671.
The figure for RRIRARPPRLPRPRPRPNDLPRP is 0.172.
For RRIRTRPPRLPRPRPRPKCNPRP the value was -0.221; for RRIRDRPPRLPRPRPRPMPPPRP, 0.361.
As for RRIRWRPPRLPRPRPRPEFPPRP, the “shrunken log2 fold change” value was found to be 0.0195.
The figure for RRIRHRPPRLPRPRPRPTREPRP is 0.0175; for RRIRARPPRLPRPRPRPSMHPRP it is 0.163.
The figure for RRIRYRPPRLPRPRPRPNKKPRP is -0.298; for RRIRRRPPRLPRPRPRPFAQPRP it is 0.199.
For RRIRQRPPRLPRPRPRPYDVPRP the value was -0.00663; for RRIRKRPPRLPRPRPRPFTMPRP, -0.23; for RRIRARPPRLPRPRPRPLRCPRP, 0.242.
Regarding RRIRLRPPRLPRPRPRPPPRPRP, the “shrunken log2 fold change” value stood at 1.66.
For RRIRPRPPRLPRPRPRPICNPRP the value was -0.367; for RRIRRRPPRLPRPRPRPHMAPRP, -0.128.
The figure for RRIRPRPPRLPRPRPRPQCLPRP is 0.0368; for RRIRVRPPRLPRPRPRPGILPRP it is -0.466.
With RRIRARPPRLPRPRPRPMYWPRP, the “shrunken log2 fold change” value is -0.0443.
For the sequence RRIRCRPPRLPRPRPRPRDYPRP, the “shrunken log2 fold change” value came out at 0.00558.
The figure for RRIRGRPPRLPRPRPRPWCMPRP is 0.13.
The figure for RRIRPRPPRLPRPRPRPLGWPRP is 0.442; for RRIRWRPPRLPRPRPRPAFKPRP it is -0.00397.
The figure for RRIRWRPPRLPRPRPRPHRDPRP is -0.215; for RRIRFRPPRLPRPRPRPGLCPRP it is 0.606.
In the case of RRIRCRPPRLPRPRPRPYEWPRP, the “shrunken log2 fold change” value was -0.0207.
For RRIRARPPRLPRPRPRPQCSPRP the value was 0.111.
For RRIRVRPPRLPRPRPRPWLDPRP the value was 0.183; for RRIRDRPPRLPRPRPRPIDTPRP, -0.3; for RRIRGRPPRLPRPRPRPLKLPRP, 0.164.
For RRIRRRPPRLPRPRPRPSVEPRP the value was 0.0256.
Take RRIRYRPPRLPRPRPRPFQGPRP: the “shrunken log2 fold change” value is 0.0712.
RRIRWRPPRLPRPRPRPSTNPRP: the “shrunken log2 fold change” value is -0.127.
For RRIRLRPPRLPRPRPRPAEHPRP the value was 0.141.
For RRIRIRPPRLPRPRPRPPNTPRP the value was -0.464; for RRIRVRPPRLPRPRPRPVWHPRP, 0.119.
The figure for RRIRMRPPRLPRPRPRPDWGPRP is 0.0473; for RRIRLRPPRLPRPRPRPSSYPRP it is -0.542.
Consider RRIRMRPPRLPRPRPRPMVIPRP, for which the “shrunken log2 fold change” value is -0.0665.
The figure for RRIRFRPPRLPRPRPRPHDTPRP is -0.535; for RRIRHRPPRLPRPRPRPFKAPRP it is -0.0378.
For RRIRDRPPRLPRPRPRPDQKPRP the value was -0.0052; for RRIRCRPPRLPRPRPRPCFIPRP, -0.488; for RRIRFRPPRLPRPRPRPDMWPRP, -1.03.
For RRIRNRPPRLPRPRPRPYWGPRP the value was 0.0237; for RRIRKRPPRLPRPRPRPVYLPRP, -0.326.
In the case of RRIRRRPPRLPRPRPRPLDKPRP, the “shrunken log2 fold change” value is -0.152.
The figure for RRIRQRPPRLPRPRPRPVLIPRP is 0.0422; for RRIRHRPPRLPRPRPRPYCDPRP it is -0.313; for RRIRERPPRLPRPRPRPNPYPRP it is -0.304.
The figure for RRIRDRPPRLPRPRPRPAHTPRP is 0.0343.
The figure for RRIRGRPPRLPRPRPRPPENPRP is 1.11; for RRIRQRPPRLPRPRPRPCGCPRP it is 0.164.
With RRIRDRPPRLPRPRPRPLVYPRP, the “shrunken log2 fold change” value was -0.259.
For RRIRHRPPRLPRPRPRPYPNPRP the value was -0.014; for RRIRRRPPRLPRPRPRPTSLPRP, 0.0087.
